B1: Fre (enzyme, E. coli, UniProt P0AEN1 1-233, looked up)
chain: MTTLSCKVTSVEAITDTVYRVRIVPDAAFSFRAGQYLMVVMDERDKRPFSMASTPDEKGFIELHIGASEINLYAKAVMDRILKDHQIVVDIPHGEAWLRDDEERPMILIAGGTGFSYARSILLTALARNPNRDITIYWGGREEQHLYDLCELEALSLKHPGLQVVPVVEQPEAGWRGRTGTVLTAVLQDHGTLAEHDIYIAGRFEMAKIARDLFCSERNAREDRLFGDAFAFI
notes: Fre, NAD(P)H:flavin oxidoreductase of E. coli, GenBank M61182; also called oxidoreductase Fre; E. coli Fre; source: E. coli, recombinant, overexpressed, purified
B2: MupA (enzyme, Pseudomonas fluorescens, UniProt Q9AH80 1-369, looked up)
chain: MSVEQLLGLGVTNAARAPRQPAFSLLFFSDVREDISASEKYEFARSLTLFGDAQGFEAVYFPERHFHEFGAIYPDSAVMAASLIPQTRHIRFRTAGISLPLHHPARVVESWSMNDVLSGGRVDLGFGSGWSRPDFLLAPHAYEDRREVMWQRIEQVRRLWAGERLSFPGPGGDPVSVVTFPRPLQTSLNVWILVAQNTESFIAAGKAGFNVFTMLYGIDLPDLAEKIGLYRQARRDAGFDPASGRVTLMLHTLVGPDSAWVRRAVEAPFKDYIRSSLVAHMKARATPDGRPLDATEQENVLQYAFERYYETGALFGTVDEVRYRVGQVLETGVDEIACLMDFGVDYAVVHQSLPYLEQLVASFQERSAQ
notes: MupA, trans-acting flavin-dependent monooxygenase of the mupirocin biosynthetic gene cluster of Pseudomonas fluorescens; Dimeric by SEC; a dimer of dimers above 2 mg/ml; Used unlabelled in the NMR experiments; also called flavin-dependent monooxygenase (FMO); FMNH2-dependent oxygenase

What was measured:
[1] = target: the molecule itself; assay: not stated; purification of recombinant Fre (Figure S6); how the dimer was shown is not told in the main text
[2] = target: the molecule itself; assay: SEC; size exclusion chromatography of purified MupA (lower concentrations)
[3] = target: the molecule itself; assay: SEC; size exclusion chromatography of purified MupA at higher concentrations (>2 mg/ml)

| Protein | stoichiometry N [1] | stoichiometry N [2] | stoichiometry N [3] |
| --- | --- | --- | --- |
| B1 | 2 | – | – |
| B2 | – | 2 | 4 |

From article PMC10952193, “Structure and Function of the α‐Hydroxylation Bimodule of the Mupirocin Polyketide Synthase” (Angewandte Chemie (Weinheim an Der Bergstrasse, Germany), 2023)
